According to patent US20060110388A1 (APPLIED MOLECULAR EVOLUTION, published 2006):

Columns and labels:
[1] = molecular target: T1, β Amyloid peptide 1-40 (human, UniProt P05067 672-711); assay: BIAcore; against m266
T1 construct: domain: β Amyloid peptide 1-40; Biotinylated peptide 1-40 (Biosource) on avidin Sepharose only captured free antibody in KinExA; also called Aβ 1-40; human Aβ (1-40)
Description: (§1) BIAcore™ is an automated biosensor system that measures molecular interactions (Karlsson, et al. (1991) J. Immunol. Methods 145: 229-240). BIAcore™ analyses described herein were carried out at 25° C. In these experiments, antibody was immobilized at low density on a BIAcore™ CM5 or B1 chip. For the m266 antibody goat anti-mouse Fc (Jackson Immunoresearch) immobilized on CM5 in flow cell 2 was used for measuring binding constants. Goat anti-mouse was used as control antibody in flow cell 1. For the humanized antibodies, protein A or protein A/G was immobilized via amine coupling to flow cells 1 and 2 of a B1 or CM5 sensor chip.
(§2) Antibody was then captured only to flow cell 2 at desired levels (usually a 10-60 second injection of antibody) and allowed to stabilize for 5 minutes. For these experiments, a fresh aliquot of Aβ 1-40 was thawed and then diluted 1:10 in HBS-EP running buffer. The 1:10 dilution was used to make up a 200 nM Aβ solution which was serially diluted (1:2 dilutions) to a lowest concentration of 6.25 nM. Each concentration was injected over the surface for 5 minutes at a flow rate of 50 μl/min (250 μl total). The Aβ and antibody were eluted from both flow cells with a 40s injection of glycine pH 1.5. The signal is allowed to stabilize for 2 minutes before the next cycle. The data from flow cell 1 is subtracted from flow cell 2 to account for any bulk shifts due to buffer differences or non-specific binding to the sensor chip or Protein A. The various concentrations were injected randomly and each concentration was run in duplicate. Two control runs of buffer only were used to control for any dissociation of antibody from the capture surface. The data was analyzed using the Biaevalution™ software. A 1:1 model with mass transfer and a local Rmax was used as the best fit for the data.
Concentrations of human Aβ (1-40) from 200 nM to 1.6 nM in 2-fold serial dilution were used to obtain on-rate constant. The upper half of Table 6 represents determinations made with a first set of antibody preparations, while the lower half represents determinations made with a second set of antibody preparations

[2] = molecular target: T1, β Amyloid peptide 1-40; assay: BIAcore, mAb captured, Aβ 1-40 injected, second set of preparations
Description: as §1
Antibody was then captured only to flow cell 2 at desired levels (usually a 10-60 second injection of antibody) and allowed to stabilize for 5 minutes. For these experiments, a fresh aliquot of Aβ 1-40 was thawed and then diluted 1:10 in HBS-EP running buffer. The 1:10 dilution was used to make up a 200 nM Aβ solution which was serially diluted (1:2 dilutions) to a lowest concentration of 6.25 nM. Each concentration was injected over the surface for 5 minutes at a flow rate of 50 μl/min (250 μl total). The Aβ and antibody were eluted from both flow cells with a 40s injection of glycine pH 1.5. The signal is allowed to stabilize for 2 minutes before the next cycle. […] The data was analyzed using the Biaevalution™ software. […]

[3] = molecular target: T1, β Amyloid peptide 1-40; assay: KinExA, Fab, equilibration 16 h
Description: (§3) Typical 1× concentrations were 10 pM of antibody active sites (0.75 ng/mL) and an upper antigen concentration of 100 pM (0.43 ng/mL). […] A KinExA™ instrument (Sapidyne) and standard KD run file were then used to determine the KD of the system. Briefly, the KinExA™ flow cell was charged with the β Amyloid peptide coated beads and washed with PBSA. For the first sample, free antibody in solution was captured by the beads washed with PBSA and detected using 1:250 Goat anti-human Cy5 (Jackson Immunochemicals) in PBSA. The flow cell was then flushed, re-charged with beads and the next sample analyzed. The process was repeated until all 12 samples were analyzed.
(§4) For KinExA™ kₒₙ and koff measurements, antigen and antibody were prepared as described above. Antigen and antibody samples at 2× active concentration were prepared in PBSA with 0.2% BSA. Samples were mixed 1:1 and the timing for the experiment started. Typical 1× concentrations were 1 nM antibody active site concentration ([…]) and 2 nM antigen (8.6 ng/mL). A KinExA™ instrument (Sapidyne) and a kineticsdirect run file were used to follow the reaction. Time for each measurement was determined using the manufacturer's instructions. Free antibody remaining in the reaction was captured using β amyloid coated beads packed into the flow cell washed with PBSA and detected at each time point using 1:250 Goat anti-human Cy5 (Jackson) in PBSA. The flow cell was then flushed and recharged with beads for the next measurement, the process continued until a complete decay curve obtained. The data was analyzed using the KinExA™ Inject software.

[4] = molecular target: T1, β Amyloid peptide 1-40; assay: KinExA, mAb
Description: (§5) Typical 1× concentrations were 10 pM of antibody active sites (0.75 ng/mL) and an upper antigen concentration of 100 pM (0.43 ng/mL). The samples were then allowed to equilibrate for 24-72 hours at room temperature. A KinExA™ instrument (Sapidyne) and standard KD run file were then used to determine the KD of the system. Briefly, the KinExA™ flow cell was charged with the β Amyloid peptide coated beads and washed with PBSA. For the first sample, free antibody in solution was captured by the beads washed with PBSA and detected using 1:250 Goat anti-human Cy5 (Jackson Immunochemicals) in PBSA. The flow cell was then flushed, re-charged with beads and the next sample analyzed. The process was repeated until all 12 samples were analyzed.

[5] = molecular target: T1, β Amyloid peptide 1-40; assay: KinExA, mAb; against m266
Description: as §5

[6] = molecular target: T1, β Amyloid peptide 1-40; assay: KinExA, mAb, equilibration 16 h
Description: as §3, §4

[7] = molecular target: T1, β Amyloid peptide 1-40; assay: BIAcore, mAb captured, Aβ 1-40 injected, first set of preparations
Description: as §1, §2
Concentrations of human Aβ (1-40) from 200 nM to 1.6 nM in 2-fold serial dilution were used to obtain on-rate constant. […]

T1 sequence (P05067 672-711 limits assumed): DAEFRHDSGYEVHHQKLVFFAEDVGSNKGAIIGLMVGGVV

Fold Increase (kon) [1] [fold]	kon [2] [M⁻¹ s⁻¹]	Kd [3] [nM]	koff [3] [s⁻¹]	kon [3] [M⁻¹ s⁻¹]	Kd [4] [nM]	Fold increase in affinity [5] [fold]	Kd [6] [nM]	koff [6] [s⁻¹]	kon [6] [M⁻¹ s⁻¹]	kon [7] [M⁻¹ s⁻¹]	Binder
3	410000										1A12 monoclonal antibody (IgG1) (antibody, V domains shown) VH: EVQLVESGGGLVKPGGSLRLSCAASGFTFSRYSMSWVRQAPGKGLEWVGQINIRGNNTYYPDTVKGRFTISRDDSKNTLYLQMNSLKTEDTAVYYCTTGDFWGQGTLVTVSS VL: DIVMTQTPLSLSVTPGQPASISCRSSQSLIYSDGNAYLHWYLQKPGQSPQLLIYKVSNRFSGVPDRFSGSGSGTDFTLKISRVEAEDVGVYYCSQSTHSPWTFGGGTKVEIK
		0.0108	1.72e-05	1.59e+06							1A12 Fab (Fab, V domains shown, Fab clone) VH: EVQLVESGGGLVKPGGSLRLSCAASGFTFSRYSMSWVRQAPGKGLEWVGQINIRGNNTYYPDTVKGRFTISRDDSKNTLYLQMNSLKTEDTAVYYCTTGDFWGQGTLVTVSS VL: DIVMTQTPLSLSVTPGQPASISCRSSQSLIYSDGNAYLHWYLQKPGQSPQLLIYKVSNRFSGVPDRFSGSGSGTDFTLKISRVEAEDVGVYYCSQSTHSPWTFGGGTKVEIK
4					15.1	0.005	6.31	0.00074	120000	470000	1D4 monoclonal antibody (IgG1) (antibody, V domains shown) VH: EVQLVESGGGLVKPGGSLRLSCAASGFTFSRYSMSWVRQAPGKGLEWVGQINSQGNSTYYPDTVKGRFTISRDDSKNTLYLQMNSLKTEDTAVYYCTTGDRWGQGTLVTVSS VL: DIVMTQTPLSLSVTPGQPASISCRSSQSLIYSDGNAYLHWYLQKPGQSPQLLIYKVSNRFSGVPDRFSGSGSGTDFTLKISRVEAEDVGVYYCSQSTHSPWTFGGGTKVEIK
5	610000						0.0079	1.01e-05	1.28e+06		6C3 monoclonal antibody (IgG1) (antibody, V domains shown) VH: EVQLVESGGGLVKPGGSLRLSCAASGFTFSRYSMSWVRQAPGKGLEWVGQINSRGNSTYYPDTVKGRFTISRDDSKNTLYLQMNSLKTEDTAVYYCTTGDFWGQGTLVTVSS VL: DIVMTQTPLSLSVTPGQPASISCRSSQSLIYSDGNAYLHWYLQKPGQSPQLLIYKVSNRFSGVPDRFSGSGSGTDFTLKISRVEAEDVGVYYCTQSTHSPWTFGGGTKVEIK
